The series concerns CTCF (human). Briefly: EMSA. On the technique in general: Mobility shift assays separate free from complexed probe on a gel.

Cacna1b e37a DNA probe (139 bp): the Kd worked out at 0.0461 ng.

Values taken from article doi:10.1101/2019.12.15.876185.
